Test results taken from US20210355185A1.

target: IL-12 receptors (human) (UniProt P42701); assay: cell-based or functional assay
Sequence (Q99665 24-862, chain 2 of 2, other chains not shown): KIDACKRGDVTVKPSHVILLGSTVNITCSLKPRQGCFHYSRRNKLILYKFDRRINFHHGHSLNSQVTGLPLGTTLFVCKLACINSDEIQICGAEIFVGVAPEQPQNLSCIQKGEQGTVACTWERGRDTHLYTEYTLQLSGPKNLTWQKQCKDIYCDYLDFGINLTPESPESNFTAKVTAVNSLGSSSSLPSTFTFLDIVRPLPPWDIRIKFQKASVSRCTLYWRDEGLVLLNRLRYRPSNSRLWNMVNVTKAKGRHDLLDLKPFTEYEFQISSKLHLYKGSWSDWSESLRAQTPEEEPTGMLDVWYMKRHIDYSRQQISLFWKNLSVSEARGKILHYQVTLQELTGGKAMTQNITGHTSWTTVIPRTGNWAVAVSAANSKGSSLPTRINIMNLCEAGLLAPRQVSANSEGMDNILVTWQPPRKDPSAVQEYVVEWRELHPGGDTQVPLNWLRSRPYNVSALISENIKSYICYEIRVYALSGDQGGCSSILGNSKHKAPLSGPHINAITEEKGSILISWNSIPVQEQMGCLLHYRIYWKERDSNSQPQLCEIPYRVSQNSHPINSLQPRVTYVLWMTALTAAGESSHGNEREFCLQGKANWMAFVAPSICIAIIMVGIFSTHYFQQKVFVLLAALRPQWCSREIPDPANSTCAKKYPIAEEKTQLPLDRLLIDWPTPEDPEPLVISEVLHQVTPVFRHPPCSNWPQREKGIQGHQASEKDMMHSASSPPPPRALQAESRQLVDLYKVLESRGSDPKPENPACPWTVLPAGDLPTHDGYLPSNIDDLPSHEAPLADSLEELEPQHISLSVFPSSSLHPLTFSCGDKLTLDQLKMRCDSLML

| reduction in potency (EC50 for STAT4 phosphorylation) relative to WT IL-12-Fc XENP27201 [fold] | Substance |
| --- | --- |
| > 2 | IL-12-Fc fusion comprising IL-12p35(E153Q) (from UniProt P29460 23-328; P29459 23-219) |
| > 2 | IL-12-Fc fusion comprising IL-12p40(E235Q) (from UniProt P29460 23-328; P29459 23-219) |
| 2 | IL-12-Fc fusion comprising IL-12p35(D55Q/N151D) (from UniProt P29460 23-328; P29459 23-219) |
